This series can be described thus: self-splicing fitness, log relative to wild type (ln ratio); higher = more splicing; Tetrahymena group I intron in knt gene, E. coli kanamycin selection, DiMSum; sequences stand for … in CUCUCU…GGAGGGAAAAGUUAUCAGGCAUGCACCUGGUAGCUAGUCUUUAAACCAAUAGAUUGCAUCGGUUUAAAAGGCAAGACCGUCAAAUUGCGGGAAAGGGGUCAACAGCCGUUCAGUACCAAGUCUCAGGGGAAACUUUGAGAUGGCCUUGCAAAGGGUAUGGUAAUAAGCUGACGGACAUGGUCCUAACCACGCAGCCAAGUCCUAAGUCAACAGAUCUUCUGUUGAUAUGGAUGCAGUUCACAGACUAAAUGUCGGUCGGGGAAGAUGUAUUCUUCUCAUAAGAUAUAGUCGGACCUCUCCUUAAUGGGAGCUAGCGGAUGAAGUGAUGCAACACUGGAGCCGCUGGGAACUAAUUUGUAUGCGAAAGUAUAUUGAUUAGUUUUGGAGUACUCGUGGUCG
Put shortly: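 A randomised library covering all eight P1ex-region intron nucleotides was built with the intron in the knt kanamycin-resistance gene on pET-22b(+) and held in E. coli BL21(DE3). Cells were grown overnight at 37°C or 30°C on LB agar, with or without 25 μg/mL kanamycin, plus 100 μg/mL carbenicillin, 50 μM IPTG and 0.2% rhamnose, and pooled colonies were amplicon-sequenced on an Illumina HiSeq 2500. DiMSum fitness is the error-weighted combination of wild-type-normalised replicate fold changes, kanamycin versus none.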

± gives the uncertainty stated by the source.

On to GCCGAGCAAUAUUACGGCUA, for which the “self-splicing fitness (ln)” value runs as follows: (30 °C) -2.04 ± 0.35; (37 °C) -1.35 ± 0.27.
For the sequence GCGAAGCAAUAUUACGGAUG, the “self-splicing fitness (ln)” value (30 °C) is -1.48 ± 0.078 and the “self-splicing fitness (ln)” value (37 °C) is -1.32 ± 0.11.
On the same counts, the results for CUCCAGCAAUAUUACGAUUC are -4.14 ± 0.18 and -2.72 ± 0.19.
GGUGAGCAAUAUUACGCAGC: the “self-splicing fitness (ln)” value (37 °C) was -1.93 ± 0.34.
UUAUAGCAAUAUUACGUCCU: the “self-splicing fitness (ln)” value by setting is: (30 °C) -3.3 ± 0.34; (37 °C) -1.78 ± 0.27.
On the same counts, the results for CGAUAGCAAUAUUACGCUUG are -2.88 ± 0.2 and -1.04 ± 0.16.
With UACGAGCAAUAUUACGGUAU, the “self-splicing fitness (ln)” value is -3.12 ± 0.26 (30 °C) and -3.28 ± 0.3 (37 °C).
On the same counts, the results for GGAGAGCAAUAUUACGAUAU are -3.43 ± 0.24 and -0.657 ± 0.16.
In the same order, the values of UAGAAGCAAUAUUACGCGCU are -1.28 ± 0.16 and -1.85 ± 0.17.
In the case of AGGUAGCAAUAUUACGCGAU, the “self-splicing fitness (ln)” value (30 °C) is -3.466 ± 0.03 and the “self-splicing fitness (ln)” value (37 °C) is -2.24 ± 0.039.
On the same counts, the results for ACUAAGCAAUAUUACGGCAG are -1.71 ± 0.1 and -0.238 ± 0.11.
Turning to CUUUAGCAAUAUUACGAAUA, the “self-splicing fitness (ln)” value (30 °C) is -3.48 ± 0.48.
For the sequence AUCUAGCAAUAUUACGAUAG, the “self-splicing fitness (ln)” value is -2.36 ± 0.33 (30 °C) and -1.16 ± 0.44 (37 °C).
UAAGAGCAAUAUUACGCUGU: the “self-splicing fitness (ln)” value by setting is: (30 °C) -3.35 ± 0.45; (37 °C) -2.22 ± 0.34.
On to AGUCAGCAAUAUUACGUCAA, for which the “self-splicing fitness (ln)” value was -2.24 ± 0.12 (30 °C) and -1.09 ± 0.1 (37 °C).
As for GUUCAGCAAUAUUACGUAUA, the “self-splicing fitness (ln)” value by setting is: (30 °C) -0.905 ± 0.15; (37 °C) -1.1 ± 0.17.
In the same order, the values of UCCAAGCAAUAUUACGAGGU are -3.4 ± 0.14 and -1.8 ± 0.11.
In the same order, the values of UGGAAGCAAUAUUACGUUGG are -2.69 ± 0.19 and -0.902 ± 0.14.
In the case of CAACAGCAAUAUUACGCAAG, the “self-splicing fitness (ln)” value (30 °C) was -1.48 ± 0.07 and the “self-splicing fitness (ln)” value (37 °C) is -0.352 ± 0.085.
As to UAGCAGCAAUAUUACGCAUG, the “self-splicing fitness (ln)” value was -0.793 ± 0.096 (30 °C) and -1.17 ± 0.14 (37 °C).
In the same order, the values of GUUAAGCAAUAUUACGGGCU are -4.09 ± 0.34 and -1.85 ± 0.2.
With GCCUAGCAAUAUUACGACCG, the “self-splicing fitness (ln)” value reads like this: (30 °C) -1.8 ± 0.34; (37 °C) -0.867 ± 0.39.
On to ACCCAGCAAUAUUACGUAGA, for which the “self-splicing fitness (ln)” value is -2.03 ± 0.1 (30 °C) and -1.39 ± 0.11 (37 °C).
On the same counts, the results for CCCUAGCAAUAUUACGUGGC are -3.35 ± 0.18 and -2.68 ± 0.16.
Regarding AGUAAGCAAUAUUACGUAGC, the “self-splicing fitness (ln)” value was -4.37 ± 0.42 (30 °C) and -3.1 ± 0.47 (37 °C).
In the case of GUCUAGCAAUAUUACGGUUA, the “self-splicing fitness (ln)” value is, setting by setting: (30 °C) -0.904 ± 0.15; (37 °C) -0.443 ± 0.13.
In the case of GAAAAGCAAUAUUACGAGAA, the “self-splicing fitness (ln)” value by setting is: (30 °C) -3.21 ± 0.48; (37 °C) -1.11 ± 0.23.
On the same counts, the results for UCAGAGCAAUAUUACGAAUG are -1.78 ± 0.24 and -2.76 ± 0.38.
Turning to UGUAAGCAAUAUUACGCAUU, the “self-splicing fitness (ln)” value is -3.58 ± 0.28 (30 °C) and -2.08 ± 0.24 (37 °C).
In the same order, the values of CGGGAGCAAUAUUACGUGAC are -2.16 ± 0.32 and -2.9 ± 0.44.
On the same counts, the results for AGCUAGCAAUAUUACGGCAC are -1.75 ± 0.14 and -0.45 ± 0.16.
On the same counts, the results for CUCAAGCAAUAUUACGUGCU are -4.3 ± 0.24 and -2.73 ± 0.17.
CAUUAGCAAUAUUACGAAUU: the “self-splicing fitness (ln)” value is -2.07 ± 0.22 (30 °C) and -1.2 ± 0.17 (37 °C).
With UCACAGCAAUAUUACGAGGU, the “self-splicing fitness (ln)” value runs as follows: (30 °C) -4.27 ± 0.36; (37 °C) -2.54 ± 0.22.
In the same order, the values of CACUAGCAAUAUUACGCGUA are -1.84 ± 0.093 and -0.0161 ± 0.075.
Turning to UGCAAGCAAUAUUACGACAG, the “self-splicing fitness (ln)” value by setting is: (30 °C) -0.739 ± 0.066; (37 °C) -0.13 ± 0.092.
On the same counts, the results for GAAAAGCAAUAUUACGCGCU are -0.913 ± 0.11 and -0.301 ± 0.11.
For UUUGAGCAAUAUUACGCCAG, the “self-splicing fitness (ln)” value was -2.78 ± 0.36 (30 °C) and -2.12 ± 0.47 (37 °C).

The values are drawn from the supplement of paper PMC7877785.
